One molecule from article PMC6902028, “Elucidating the Immune Evasion Mechanisms of Borrelia mayonii, the Causative Agent of Lyme Disease” (Frontiers in Immunology, 2019) can be followed below.

The target in the assay is T1, complement regulator factor H (FH) (human, UniProt P08603 19-1231).
T1 construct: source: bought: Complement Technology (purified); native, in non-immune human serum (NHS, NHS-EDTA)
Put plainly: ELISA; CspA of B. mayonii MN14-1420 (5 μg/ml) immobilised, increasing concentrations of FH; non-linear regression, one-site specific binding model. As to conditions: both partners purified.

T1 sequence (P08603 19-1231): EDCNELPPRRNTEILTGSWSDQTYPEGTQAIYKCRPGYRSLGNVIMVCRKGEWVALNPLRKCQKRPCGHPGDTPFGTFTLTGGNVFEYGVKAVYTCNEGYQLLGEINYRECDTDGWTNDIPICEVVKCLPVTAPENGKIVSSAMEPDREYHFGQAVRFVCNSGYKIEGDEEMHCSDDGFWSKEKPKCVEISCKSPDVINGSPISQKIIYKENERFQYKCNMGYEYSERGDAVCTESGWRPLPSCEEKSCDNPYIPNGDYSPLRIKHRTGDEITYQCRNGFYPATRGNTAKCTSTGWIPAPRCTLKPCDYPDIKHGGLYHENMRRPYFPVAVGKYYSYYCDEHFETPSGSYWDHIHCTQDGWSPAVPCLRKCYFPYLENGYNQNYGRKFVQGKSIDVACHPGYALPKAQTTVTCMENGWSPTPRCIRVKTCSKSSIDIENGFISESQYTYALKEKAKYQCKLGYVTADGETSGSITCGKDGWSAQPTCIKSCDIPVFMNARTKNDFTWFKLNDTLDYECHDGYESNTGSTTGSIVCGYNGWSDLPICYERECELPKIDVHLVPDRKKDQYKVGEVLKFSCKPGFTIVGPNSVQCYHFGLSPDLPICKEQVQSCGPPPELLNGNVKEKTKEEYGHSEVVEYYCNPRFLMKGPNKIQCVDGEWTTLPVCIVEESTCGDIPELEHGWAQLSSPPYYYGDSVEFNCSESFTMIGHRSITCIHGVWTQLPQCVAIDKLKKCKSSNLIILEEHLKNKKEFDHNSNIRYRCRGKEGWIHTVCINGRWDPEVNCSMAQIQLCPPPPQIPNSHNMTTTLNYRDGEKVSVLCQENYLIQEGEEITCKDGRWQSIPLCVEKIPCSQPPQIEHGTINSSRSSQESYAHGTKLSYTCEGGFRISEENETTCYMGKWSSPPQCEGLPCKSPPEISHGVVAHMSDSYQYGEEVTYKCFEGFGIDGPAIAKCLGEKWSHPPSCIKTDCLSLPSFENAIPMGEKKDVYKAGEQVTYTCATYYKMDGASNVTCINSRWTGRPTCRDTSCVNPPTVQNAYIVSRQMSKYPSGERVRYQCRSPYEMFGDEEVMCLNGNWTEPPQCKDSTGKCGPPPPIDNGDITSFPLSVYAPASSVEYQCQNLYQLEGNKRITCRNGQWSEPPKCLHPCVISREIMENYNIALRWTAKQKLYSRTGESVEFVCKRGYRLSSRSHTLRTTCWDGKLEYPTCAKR

B1: His6-tagged CspA of B. mayonii MN14-1420 (CspA-like protein Bmayo_04535) (natural protein)
chain: TANPIDPKANGNIKPKNNINTKKNTNLEKNTQNFENESENPRSYNQKLLEATIKELKVIGKNLEDQRKEENIQIAKIVDEKFDFLGTFKVGPYDIIEENQQMKMKRIIYSSLNYKKEKIETLKEILETLKNNPEHQYIAGRLANLSWSIQFKIDDNFETIQNGVDNLDQEKSESLLMRAKSNLQLKERFKKTLNETLEAYSQNAQNIKNDIGILAEHVNKYYKYSDSLKPIFY
notes: also called CspA orthologous protein of B. mayonii; CspA ortholog; not shown: His6, N-terminal, kept
As usually defined, the Kd is a measure of binding affinity in units of concentration. A high value points to lower affinity. The molecule B1 gave a Kd of 5.6 ± 0.58 nM.
